Data reported in PMC8213707, “Structural basis for the ARF GAP activity and specificity of the C9orf72 complex” (Nature Communications, 2021).

T1: SMCR8 of the STREP-STREP-FLAG-ARF1-SMCR8 fusion (UniProt Q8TEV9 1-937)
T1 construct: SMCR8; In the structure its N-terminus is joined to the C terminus of ARF1 E17-K181, which carries the N-terminal STREP-STREP-FLAG tag, on one chain; also called Smith-Magenis chromosome regions 8
T1 sequence: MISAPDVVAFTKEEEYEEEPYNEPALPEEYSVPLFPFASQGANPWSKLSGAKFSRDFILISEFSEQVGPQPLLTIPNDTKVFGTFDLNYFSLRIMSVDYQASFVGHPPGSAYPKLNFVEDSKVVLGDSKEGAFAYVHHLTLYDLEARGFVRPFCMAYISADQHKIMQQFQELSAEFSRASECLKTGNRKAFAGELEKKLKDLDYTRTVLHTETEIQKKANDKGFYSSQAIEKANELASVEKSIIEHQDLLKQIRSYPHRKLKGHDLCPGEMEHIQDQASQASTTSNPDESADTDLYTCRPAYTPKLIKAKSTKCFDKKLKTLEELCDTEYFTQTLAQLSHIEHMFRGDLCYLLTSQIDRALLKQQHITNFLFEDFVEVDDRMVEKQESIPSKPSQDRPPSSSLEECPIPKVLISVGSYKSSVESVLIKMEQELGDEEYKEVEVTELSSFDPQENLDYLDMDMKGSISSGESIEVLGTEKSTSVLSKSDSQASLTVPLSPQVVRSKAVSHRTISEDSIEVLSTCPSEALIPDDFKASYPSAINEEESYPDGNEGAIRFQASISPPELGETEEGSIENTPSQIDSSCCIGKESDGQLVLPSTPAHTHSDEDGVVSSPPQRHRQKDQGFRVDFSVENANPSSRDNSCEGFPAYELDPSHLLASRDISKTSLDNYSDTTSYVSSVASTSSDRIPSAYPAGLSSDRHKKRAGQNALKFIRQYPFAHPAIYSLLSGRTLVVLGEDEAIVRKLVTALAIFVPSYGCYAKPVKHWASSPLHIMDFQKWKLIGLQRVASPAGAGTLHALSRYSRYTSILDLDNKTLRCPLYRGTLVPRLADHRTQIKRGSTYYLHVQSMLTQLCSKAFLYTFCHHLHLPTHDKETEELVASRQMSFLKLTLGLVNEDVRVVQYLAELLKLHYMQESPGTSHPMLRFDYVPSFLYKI

B1: ARF1^Q71L (residues E17-K181), GTP-locked mutant (domain or fragment)
chain: not shown
notes: ARF1, residues E17-K181 (N-terminal myristoylated amphipathic helix removed); source: E. coli BL21 DE3 star, purified (Ni-NTA, Superdex 75)
B2: ARF1 (residues E17-K181) of the STREP-STREP-FLAG-ARF1-SMCR8 fusion (domain or fragment)
chain: not shown
notes: ARF1, residues E17-K181; In the structure this ARF1 is joined by its C terminus to the N-terminus of SMCR8 on one chain (STREP-STREP-FLAG-ARF1-SMCR8, inserted by KpnI sites); also called ARF1-GDP-BeF3^-
B3: C9orf72 (subunit of the C9orf72:ARF1-SMCR8:WDR41 complex) (natural protein)
chain: MSTLCPPPSPAVAKTEIALSGKSPLLAATFAYWDNILGPRVRHIWAPKTEQVLLSDGEITFLANHTLNGEILRNAESGAIDVKFFVLSEKGVIIVSLIFDGNWNGDRSTYGLSIILPQTELSFYLPLHRVCVDRLTHIIRKGRIWMHKERQENVQKIILEGTERMEDQGQSIIPMLTGEVIPVMELLSSMKSHSVPEEIDIADTVLNDDDIGDSCHEGFLLNAISSHLQTCGCSVVVGSSAEKVNKIVRTLCLFLTPAERKCSRLCEAESSFKYESGLFVQGLLKDSTGSFVLPFRQVMYAPYPTTHIDVDVNTVKQMPPCHEHIYNQRRYMRSELTAFWRATSEEDMAQDTIIYTDESFTPDLNIFQDVLHRDTLVKAFLDQVFQLKPGLSLRSTFLAQFLLVLHRKALTLIKYIEDDTQKGKKPFKSLRNLKIDLDLTAEGDLNIIMALAEKIKPGLHSFIFGRPFYTSVQERDVLMTF
notes: C9orf72; not shown: GST, N-terminal, cleaved
B4: WDR41 (subunit of the C9orf72:ARF1-SMCR8:WDR41 complex) (natural protein)
chain: MLRWLIGGGREPQGLAEKSPLQTIGEEQTQNPYTELLVLKAHHDIVRFLVQLDDYRFASAGDDGIVVVWNAQTGEKLLELNGHTQKITAIITFPSLESCEEKNQLILTASADRTVIVWDGDTTRQVQRISCFQSTVKCLTVLQRLDVWLSGGNDLCVWNRKLDLLCKTSHLSDTGISALVEIPKNCVVAAVGKELIIFRLVAPTEGSLEWDILEVKRLLDHQDNILSLINVNDLSFVTGSHVGELIIWDALDWTMQAYERNFWDPSPQLDTQQEIKLCQKSNDISIHHFTCDEENVFAAVGRGLYVYSLQMKRVIACQKTAHDSNVLHVARLPNRQLISCSEDGSVRIWELREKQQLAAEPVPTGFFNMWGFGRVSKQASQPVKKQQENATSCSLELIGDLIGHSSSVEMFLYFEDHGLVTCSADHLIILWKNGERESGLRSLRLFQKLEENGDLYLAV
notes: WDR41, cloned without a tag; also called WD repeat-containing protein 41

Key:
Details in all cases: both partners purified
[1] = target: T2, C9orf72:SMCR8:WDR41 complex (wild type) (UniProt Q96LT7 1-481; Q8TEV9 1-937; Q9HAD4 1-459); experiment: SEC; 15 μM C9orf72:SMCR8:WDR41 incubated with 15-fold ARF1^Q71L in 500 μl overnight, injected into Superose 6 Increase 10/300
T2 construct: C9orf72; SMCR8 (Smith-Magenis chromosome regions 8); WDR41 (WD repeat-containing protein 41), cloned without a tag; The methods describe the purification for the fusion complex; also called C9orf72 complex; GAP complex; not shown: GST, N-terminal, cleaved; copies: + +

[2] = target: B3; experiment: cryo-EM structure; chimeric C9orf72:ARF1-SMCR8:WDR41 complex, GDP-bound, incubated with BeF3^- overnight; 20 mM HEPES pH 7.4, 200 mM NaCl, 2 mM MgCl2, 0.5 mM TCEP; 3.9 Å reconstruction
[3] = target: T1, SMCR8 of the …; experiment: as above

B1: binds [1].

B2: binds [2]; binds [3].

B3: binds [3].

B4: binds [3].
